Data: patent publication US20110165161A1, “ANTI-EPCAM ANTIBODIES THAT INDUCE APOPTOSIS OF CANCER CELLS AND METHODS USING SAME” (priority 2009, published 2011)

How the values were obtained:
[1] = molecular target: T1, human EpCAM (epithelial cell adhesion/activating molecule) (human, UniProt P16422 24-314); assay: cell-based or functional assay
T1 sequence: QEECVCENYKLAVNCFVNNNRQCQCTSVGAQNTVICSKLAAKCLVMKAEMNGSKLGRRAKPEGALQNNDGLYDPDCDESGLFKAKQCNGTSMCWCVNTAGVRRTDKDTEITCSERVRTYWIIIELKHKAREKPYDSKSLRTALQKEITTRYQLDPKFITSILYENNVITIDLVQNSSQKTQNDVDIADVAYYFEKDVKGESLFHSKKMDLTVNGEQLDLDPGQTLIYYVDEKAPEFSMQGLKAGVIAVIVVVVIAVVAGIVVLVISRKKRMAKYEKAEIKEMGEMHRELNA

[2] = molecular target: T1, human EpCAM (epithelial cell …); assay: cell-based or functional assay; remark: listed apart in the source
[3] = molecular target: T1, human EpCAM (epithelial cell …); assay: flow cytometry, CHO/EpCAM cells, 0.1 µg/ml antibody
Protocol: A 300× dilution of human cell hyper-immune serum (HPS 300×) was used as binding positive control for both cell lines here. After 1 hr incubation at 4° C., cells were washed twice with 200 μl FACS buffer (1×PBS containing 1% FBS), stained with 100 μl of 1 μg/ml goat-anti-mouse IgG-PE (Southern Biotech, Cat. No. 1032-09) in FACS buffer and then incubated at 4° C. for 30 min. Cells were washed thrice with FACS buffer and analyzed by flow cytometry (BD LSR, BD Life Sciences).

[4] = molecular target: T2, EGFI-Cr1 wild type (first EGF-like repeat of human EpCAM fused to the constant region of human immunoglobulin … (human, UniProt P01857-1 99-330 = IgG part)); assay: direct ELISA, coated EGFI-Cr1 fusion, 0.1 µg/ml antibody
T2 construct: cDNA covered aa 1-63; Expressed in COS-7 cells; also called WT; EpCAM EGF-1 fusion protein WT
Protocol: (§1) A direct ELISA was used for testing the reactivity of anti-EpCAM antibodies toward variant EpCAM mutants. Briefly, purified EpCAM EGF-1 fusion proteins (WT, Q24A, E25K, E26D, A35T, N37R, F39A, V40E, N41A, N42E, N43A, R44G, Q45A, Q47A or T49A) and irrelevant control (CEA-Cr1) were pre-diluted to 0.5 μg/ml in coating buffer (8.4 g NaHCO₃, 3.4 g Na₂CO₃ in 1 L H₂O, pH 9.5) and aliquoted (100 μl/well) into 96-well plates. […] Plates were then washed 3 times with PBST followed by the addition of the enzyme substrate TMB (BD Biosciences, Cat. No. 555214). […] The optical densities at 450 nm wavelength were measured on an ELISA plate reader.

EGFI-Cr1 Q24A = molecular target: T3, EGFI-Cr1 Q24A (human, UniProt P16422 25-63); assay: as above
T3 construct: not shown: The fused constant region of human immunoglobulin gamma 1 heavy chain (Cr1)
T3 chain: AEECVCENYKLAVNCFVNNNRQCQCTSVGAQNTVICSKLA
Protocol: as §1

EGFI-Cr1 E25K = molecular target: T4, EGFI-Cr1 E25K (human, UniProt P16422 24-63); assay: as above
T4 construct: not shown: The fused constant region of human immunoglobulin gamma 1 heavy chain (Cr1)
T4 chain: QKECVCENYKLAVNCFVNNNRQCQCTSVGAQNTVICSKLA
Protocol: as §1

EGFI-Cr1 E26D = molecular target: T5, EGFI-Cr1 E26D (human, UniProt P16422 24-63); assay: as above
T5 construct: not shown: The fused constant region of human immunoglobulin gamma 1 heavy chain (Cr1)
T5 chain: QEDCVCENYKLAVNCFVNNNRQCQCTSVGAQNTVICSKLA
Protocol: as §1

EGFI-Cr1 A35T = molecular target: T6, EGFI-Cr1 A35T (human, UniProt P16422 24-63); assay: as above
T6 construct: not shown: The fused constant region of human immunoglobulin gamma 1 heavy chain (Cr1)
T6 chain: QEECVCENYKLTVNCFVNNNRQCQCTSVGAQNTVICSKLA
Protocol: as §1

EGFI-Cr1 N37R = molecular target: T7, EGFI-Cr1 N37R (human); assay: as above
T7 construct: not shown: The fused constant region of human immunoglobulin gamma 1 heavy chain (Cr1)
T7 chain: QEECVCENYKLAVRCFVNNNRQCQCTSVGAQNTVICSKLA
Protocol: as §1

EGFI-Cr1 F39A = molecular target: T8, EGFI-Cr1 F39A (human, UniProt P16422 24-63); assay: as above
T8 construct: not shown: The fused constant region of human immunoglobulin gamma 1 heavy chain (Cr1)
T8 chain: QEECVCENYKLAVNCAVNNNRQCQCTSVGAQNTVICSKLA
Protocol: as §1

EGFI-Cr1 V40E = molecular target: T9, EGFI-Cr1 V40E (human); assay: as above
T9 construct: not shown: The fused constant region of human immunoglobulin gamma 1 heavy chain (Cr1)
T9 chain: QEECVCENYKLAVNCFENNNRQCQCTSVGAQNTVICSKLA
Protocol: as §1

EGFI-Cr1 N41A = molecular target: T10, EGFI-Cr1 N41A (human, UniProt P16422 24-63); assay: as above
T10 construct: not shown: The fused constant region of human immunoglobulin gamma 1 heavy chain (Cr1)
T10 chain: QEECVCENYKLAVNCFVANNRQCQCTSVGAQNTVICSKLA
Protocol: as §1

EGFI-Cr1 N42E = molecular target: T11, EGFI-Cr1 N42E (human, UniProt P16422 24-63); assay: as above
T11 construct: not shown: the constant region of human immunoglobulin gamma 1 heavy chain (Cr1) fused at the C-terminus
T11 chain: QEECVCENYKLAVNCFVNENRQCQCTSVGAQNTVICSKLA
Protocol: as §1

EGFI-Cr1 N43A = molecular target: T12, EGFI-Cr1 N43A (human, UniProt P16422 24-63); assay: as above
T12 construct: not shown: the constant region of human immunoglobulin gamma 1 heavy chain (Cr1) fused at the C-terminus
T12 chain: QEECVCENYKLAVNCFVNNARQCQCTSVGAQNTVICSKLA
Protocol: as §1

EGFI-Cr1 R44G = molecular target: T13, EGFI-Cr1 R44G (human, UniProt P16422 24-63); assay: as above
T13 construct: not shown: the constant region of human immunoglobulin gamma 1 heavy chain (Cr1) fused at the C-terminus
T13 chain: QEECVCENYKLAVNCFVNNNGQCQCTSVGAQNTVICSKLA
Protocol: as §1

EGFI-Cr1 Q45A = molecular target: T14, EGFI-Cr1 Q45A (human, UniProt P16422 24-63); assay: as above
T14 construct: not shown: the constant region of human immunoglobulin gamma 1 heavy chain (Cr1) fused at the C-terminus
T14 chain: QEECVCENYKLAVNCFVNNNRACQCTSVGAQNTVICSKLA
Protocol: as §1

EGFI-Cr1 Q47A = molecular target: T15, EGFI-Cr1 Q47A (human, UniProt P16422 24-63); assay: as above
T15 construct: not shown: the constant region of human immunoglobulin gamma 1 heavy chain (Cr1) fused at the C-terminus
T15 chain: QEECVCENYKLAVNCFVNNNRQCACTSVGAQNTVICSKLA
Protocol: as §1

EGFI-Cr1 T49A = molecular target: T16, EGFI-Cr1 T49A (human, UniProt P16422 24-63); assay: as above
T16 construct: not shown: the constant region of human immunoglobulin gamma 1 heavy chain (Cr1) fused at the C-terminus
T16 chain: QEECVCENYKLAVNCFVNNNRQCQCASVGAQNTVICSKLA
Protocol: as §1

- % Annexin V/PI-positive cells, DLD-1, 1.0 µg/ml mAb [1]: 18%
- % Annexin V/PI-positive cells, DLD-1, 3.0 µg/ml mAb [1]: 41%
- % Annexin V/PI-positive cells, DLD-1, 10 µg/ml mAb [1]: 48%
- % Annexin V/PI-positive cells, FaDu, 1.0 µg/ml mAb [1]: 34%
- % Annexin V/PI-positive cells, FaDu, 3.0 µg/ml mAb [1]: 45%
- % Annexin V/PI-positive cells, FaDu, 10 µg/ml mAb [1]: 46%
- % Annexin V/PI-positive cells, LNCaP, 1.0 µg/ml mAb [1]: 40%
- % Annexin V/PI-positive cells, LNCaP, 3.0 µg/ml mAb [1]: 39%
- % Annexin V/PI-positive cells, LNCaP, 10 µg/ml mAb [1]: 40%
- % Annexin V/PI-positive cells, NCI-H520, 1.0 µg/ml mAb [1]: 41%
- % Annexin V/PI-positive cells, NCI-H520, 3.0 µg/ml mAb [1]: 44%
- % Annexin V/PI-positive cells, NCI-H520, 10 µg/ml mAb [1]: 52%
- % Annexin V/PI-positive cells, NCI-N87, 1.0 µg/ml mAb [1]: 45%
- % Annexin V/PI-positive cells, NCI-N87, 3.0 µg/ml mAb [1]: 48%
- % Annexin V/PI-positive cells, NCI-N87, 10 µg/ml mAb [1]: 51%
- % Annexin V/PI-positive cells, NIH:OVCAR-3, 1.0 µg/ml mAb [1]: 43%
- % Annexin V/PI-positive cells, NIH:OVCAR-3, 3.0 µg/ml mAb [1]: 55%
- % Annexin V/PI-positive cells, NIH:OVCAR-3, 10 µg/ml mAb [1]: 56%
- % Annexin V/PI-positive cells, T-47D, 1.0 µg/ml mAb [1]: 36%
- % Annexin V/PI-positive cells, T-47D, 3.0 µg/ml mAb [1]: 48%
- % Annexin V/PI-positive cells, T-47D, 10 µg/ml mAb [1]: 45%
- % of Annexin V + PI staining (untreated background subtracted), NCI-H358, 10 µg/ml mAb, Exp1 [2]: 41%
- % of Annexin V + PI staining (untreated background subtracted), NCI-H358, 10 µg/ml mAb, Exp2 [2]: 32%
- % of Annexin V + PI staining (untreated background subtracted), NCI-H358, 10 µg/ml mAb, Exp3 [2]: 47%
- % of Annexin V + PI staining (untreated background subtracted), NCI-H358, 10 µg/ml mAb, Exp4 [2]: 44%
- % of Annexin V + PI staining (untreated background subtracted), NCI-H358, 10 µg/ml mAb, Exp5 [2]: 33%
- MFI [3]: 3720 MFI
- relative binding activity (% of WT) [4]: 100%
- relative binding activity (% of WT) (EGFI-Cr1 Q24A): 99%
- relative binding activity (% of WT) (EGFI-Cr1 E25K): 93%
- relative binding activity (% of WT) (EGFI-Cr1 E26D): 97%
- relative binding activity (% of WT) (EGFI-Cr1 A35T): 95%
- relative binding activity (% of WT) (EGFI-Cr1 N37R): 94%
- relative binding activity (% of WT) (EGFI-Cr1 F39A): 97%
- relative binding activity (% of WT) (EGFI-Cr1 V40E): 93%
- relative binding activity (% of WT) (EGFI-Cr1 N41A): 12%
- relative binding activity (% of WT) (EGFI-Cr1 N42E): 58%
- relative binding activity (% of WT) (EGFI-Cr1 N43A): 5%
- relative binding activity (% of WT) (EGFI-Cr1 R44G): 7%
- relative binding activity (% of WT) (EGFI-Cr1 Q45A): 89%
- relative binding activity (% of WT) (EGFI-Cr1 Q47A): 96%
- relative binding activity (% of WT) (EGFI-Cr1 T49A): 95%
B1: murine monoclonal antibody 2D11 (antibody, mouse IgG1, V domains shown)
VH: QIQLVQSGPELKKPGETVKISCKASGYTFTNYGMNWVKQAPGKGLKWMGWINTNTGEATYVEEFKGRVVFSLETSASTAYLQINNLKNEDTATYFCARIGYVWYFDVWGAGTTVTVSS
VL: DIVMSQSPSSLAVSAGEKVTMSCKSSQSLFSSRTRKNYLAWYQQKPGQSPKLLIYWASTRESGVPDRFTGSGSGTDFTLTINSVQAEDLAVYYCKHSNNLFTFGSGTKLEIKR
notes: Mouse IgG1, kappa, from hybridoma; also called m322-2D11.19
